Experimental data published in doi:10.1101/2024.12.03.626679, “Structure of the SMYD2-PARP1 Complex Reveals Both Productive and Allosteric Modes of Peptide Binding” (bioRxiv, 2024).

What was measured:
SMYD2-F184A (human) [1] = target: SMYD2-F184A (human) (UniProt Q9NRG4); assay: ITC; NanoITC SV, 27°C, 25 mM Tris pH 7.5, 50 mM NaCl; 40 μM SMYD2 in the cell, 631 μM PARP1 peptide in the syringe, 16 injections of 15 μL; one-site, two-site and binding polynomial models
SMYD2-F184A (human) [2] = target: SMYD2-F184A (human) (UniProt Q9NRG4); assay: ELISA; inhibition: SMYD2 proteins pre-incubated with varying concentrations of the PARP1 peptide, then added to wells coated with PARP1(518-1014), H3 or H4; four-parameter logistic fit

Chain of SMYD2-F184A (human) (Q9NRG4 whole entry F184A): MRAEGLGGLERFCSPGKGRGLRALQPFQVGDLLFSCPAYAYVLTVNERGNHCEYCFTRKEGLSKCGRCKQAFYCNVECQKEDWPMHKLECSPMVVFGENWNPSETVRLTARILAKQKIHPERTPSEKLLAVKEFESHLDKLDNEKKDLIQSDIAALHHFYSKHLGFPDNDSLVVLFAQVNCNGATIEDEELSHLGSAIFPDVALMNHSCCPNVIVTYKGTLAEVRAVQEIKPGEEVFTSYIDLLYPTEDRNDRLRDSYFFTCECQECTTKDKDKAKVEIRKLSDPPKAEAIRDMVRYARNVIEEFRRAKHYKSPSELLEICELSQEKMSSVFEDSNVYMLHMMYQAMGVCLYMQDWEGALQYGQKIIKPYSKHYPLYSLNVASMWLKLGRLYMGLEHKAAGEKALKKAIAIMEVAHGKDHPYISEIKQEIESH

- stoichiometry N (SMYD2-F184A (human) [1]): 1
- IC50 (SMYD2-F184A (human) [2]): 153 nM
Substance: PARP1 peptide (13-residue synthetic peptide, human PARP1 residues 522-534)
